Measured values published in patent US20090175863A1 (BIOTEST, published 2009).
Values joined by “and” are separate entries in the source; they are usually repeats but may differ in a detail not shown here. Identical values can stand only once.

T1: CD138 expressed on the cell surface (OPM-2 cells, MOLP-8 cells) (human, UniProt P18827 23-310)
T1 construct: whole, on cells; also called syndecan-1; CD138+ OPM-2
T1 sequence (looked up): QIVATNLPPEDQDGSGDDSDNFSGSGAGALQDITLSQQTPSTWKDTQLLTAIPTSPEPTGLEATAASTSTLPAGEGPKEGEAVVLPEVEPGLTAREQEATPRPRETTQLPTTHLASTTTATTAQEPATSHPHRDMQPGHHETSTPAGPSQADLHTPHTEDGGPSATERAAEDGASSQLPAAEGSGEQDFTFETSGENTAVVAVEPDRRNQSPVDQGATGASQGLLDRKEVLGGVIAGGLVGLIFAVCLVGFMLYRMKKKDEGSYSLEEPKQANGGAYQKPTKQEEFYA

T2: Soluble CD138 antigen purified from U-266 cell culture supernatant, biotinylated (human, UniProt P18827 23-245, limits assumed, biotinylated with Sulfo-NHS-LC-Biotin on primary amino groups (lysine residues); positions not stated)
T2 construct: Natural soluble (shed) CD138 captured on a streptavidin sensor chip; also called bCD138; biotinylated CD138
T2 sequence (looked up): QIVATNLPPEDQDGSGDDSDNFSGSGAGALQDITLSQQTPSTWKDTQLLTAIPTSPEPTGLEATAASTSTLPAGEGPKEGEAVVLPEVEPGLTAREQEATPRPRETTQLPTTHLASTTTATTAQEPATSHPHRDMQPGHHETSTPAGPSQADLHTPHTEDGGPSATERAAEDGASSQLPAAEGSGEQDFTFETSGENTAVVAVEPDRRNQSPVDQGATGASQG


What was measured:
[1] = biological target: T1, CD138 expressed on the cell surface …; assay: FACS on CD138+ OPM-2 cells, fluorescence-labeled secondary antibody, mean fluorescence against concentration
Description: The mean fluorescence measured in these experiments was plotted against the antibody concentration.
In FIG. 6, the mean fluorescences as measure for the amount of cell bound antibody is plotted against different antibody or conjugate concentrations.

[2] = biological target: T2, Soluble CD138 antigen purified from …; assay: SPR (BIACORE C), biotinylated CD138 on SA chip, conjugate as analyte; single experiment
[3] = biological target: T2, Soluble CD138 antigen purified from …; assay: SPR (BIACORE C), biotinylated CD138 on SA chip, conjugate as analyte; mean of three experiments, +/- SD

| Binder | EC50 (read off the curve) [1] | Kd [2] | Kd [3] |
| --- | --- | --- | --- |
| nBT062-SPP-DM1 (antibody, V domains shown) VH: QVQLQQSGSELMMPGASVKISCKATGYTFSNYWIEWVKQRPGHGLEWIGEILPGTGRTIYNEKFKGKATFTADISSNTVQMQLSSLTSEDSAVYYCARRDYYGNFYYAMDYWGQGTSVTVSS VL: DIQMTQSTSSLSASLGDRVTISCSASQGINNYLNWYQQKPDGTVELLIYYTSTLQSGVPSRFSGSGSGTDYSLTISNLEPEDIGTYYCQQYSKLPRTFGGGTKLEIKR | ~1 nM | – | – |
| B-B4-SPP-DM1 (antibody, V domains shown) VH: QVQLQQSGSELMMPGASVKISCKATGYTFSNYWIEWVKQRPGHGLEWIGEILPGTGRTIYNEKFKGKATFTADISSNTVQMQLSSLTSEDSAVYYCARRDYYGNFYYAMDYWGQGTSVTVSS VL: DIQMTQSTSSLSASLGDRVTISCSASQGINNYLNWYQQKPDGTVELLIYYTSTLQSGVPSRFSGSGSGTDYSLTISNLEPEDIGTYYCQQYSKLPRTFGGGTKLEIK | – | 2.6 nM and 2.7 nM | 2.6 nM |
| nBT062-SMCC-DM1 (antibody, V domains shown) VH: QVQLQQSGSELMMPGASVKISCKATGYTFSNYWIEWVKQRPGHGLEWIGEILPGTGRTIYNEKFKGKATFTADISSNTVQMQLSSLTSEDSAVYYCARRDYYGNFYYAMDYWGQGTSVTVSS VL: DIQMTQSTSSLSASLGDRVTISCSASQGINNYLNWYQQKPDGTVELLIYYTSTLQSGVPSRFSGSGSGTDYSLTISNLEPEDIGTYYCQQYSKLPRTFGGGTKLEIKR | ~1 nM | – | – |
| nBT062 (antibody, human IgG4, kappa, V domains shown, also called cB-B4; chimeric B-B4) VH: QVQLQQSGSELMMPGASVKISCKATGYTFSNYWIEWVKQRPGHGLEWIGEILPGTGRTIYNEKFKGKATFTADISSNTVQMQLSSLTSEDSAVYYCARRDYYGNFYYAMDYWGQGTSVTVSS VL: DIQMTQSTSSLSASLGDRVTISCSASQGINNYLNWYQQKPDGTVELLIYYTSTLQSGVPSRFSGSGSGTDYSLTISNLEPEDIGTYYCQQYSKLPRTFGGGTKLEIKR | ~1 nM | – | – |
